These results are taken from patent US20230002480A1.

What all share (assay): cell-based or functional assay
The target in experiment [1] is HIV-1 Env of pseudovirus BJOX009000.02.4 (clade CRF01_AE) (HIV-1).
The target of experiment [2] is HIV-1 Env of pseudovirus BJOX025000.01.1 (clade CRF01_AE (T/F)) (HIV-1).
Experiment [3] has as its target HIV-1 Env of pseudovirus BJOX028000.10.3 (clade CRF01_AE (T/F)) (HIV-1).
In experiment [4] the target is HIV-1 Env of pseudovirus C4118.c09 (clade CRF01_AE) (HIV-1).
Experiment [5] deals with HIV-1 Env of pseudovirus R2184.c04 (clade CRF01_AE) (HIV-1).
Experiment [6] addresses HIV-1 Env of pseudovirus R3265.c06 (clade CRF01_AE) (HIV-1).
Experiment [7] has as its target HIV-1 Env pseudovirus 0815.v3.c3 (HIV-1).
In experiment [8] the target is HIV-1 Env pseudovirus 211-9 (HIV-1).
For experiment [9], the target named is HIV-1 Env pseudovirus 263-8 (HIV-1).
In experiment [10] the target is HIV-1 Env pseudovirus 3301.v1.c24 (HIV-1).
Experiment [11] has as its target HIV-1 Env pseudovirus 3365.v2.c2 (HIV-1).
Experiment [12] addresses HIV-1 Env pseudovirus 6480.v4.c25 (HIV-1).
The target of experiment [13] is HIV-1 Env pseudovirus 6540.v4.c1 (HIV-1).
Experiment [14] addresses HIV-1 Env pseudovirus 6545.v4.c1 (HIV-1).
Experiment [15] deals with HIV-1 Env pseudovirus BJOX028000.10.3 (HIV-1).
For experiment [16], the target named is HIV-1 Env pseudovirus C2101.c01 (HIV-1).
Experiment [17] addresses HIV-1 Env pseudovirus R1166.c01 (HIV-1).
Experiment [18] has as its target HIV-1 Env pseudovirus R2184.c04 (HIV-1).
In experiment [19] the target is HIV-1 Env pseudovirus X1632_S2_B10 (HIV-1).
Experiment [20] deals with HIV-1 Env pseudovirus X2131_C1_B5 (HIV-1).

With 10-1074 (antibody), the IC50, titer in TZM.bl cells in experiment [1], in [2], in [3], in experiment [4] and in experiment [5] was greater than 50 µg/mL in each case. Moreover, the IC80, titer in TZM.bl cells in [1], in experiment [2], in [3], in [4] and in experiment [5] was greater than 50 µg/mL throughout.
For 10E8 (antibody), the IC50, titer in TZM.bl cells in [1] was 1.57 µg/mL; in experiment [2], 0.107 µg/mL; in [3] it was 0.665 µg/mL; in experiment [4] it was 1.62 µg/mL; in experiment [5], 0.272 µg/mL; in experiment [6] it was greater than 10 µg/mL. The IC80, titer in TZM.bl cells in experiment [1] is 9.95 µg/mL; in experiment [2], 6.33 µg/mL; in [3] it was 7.36 µg/mL; in experiment [4] it was 9.06 µg/mL; in experiment [5], 2.46 µg/mL; in [6] it was greater than 10 µg/mL.
N49P19 (antibody): the concentration for half-maximal inhibition (IC50) was 0.176 µg/mL in [7]; 3.23 µg/mL in experiment [8]; 0.344 µg/mL in [9]; 0.302 µg/mL in [10]; 0.579 µg/mL in experiment [11]; 3.04 µg/mL in experiment [12]. Further, the half-inhibitory concentration (IC50) was 11.2 µg/mL in experiment [13]; greater than 50 µg/mL in [14]; 7 µg/mL in experiment [15]; 0.978 µg/mL in [16]; 0.629 µg/mL in experiment [17]; 0.132 µg/mL in [18]. For the same substance, the 50% inhibitory concentration (IC50) in [19] was greater than 50 µg/mL; in [20], 2.52 µg/mL. Also, the 80% effect concentration (IC80) in [7] was 0.743 µg/mL; in [8] it was 19 µg/mL; in experiment [9], 1.51 µg/mL; in experiment [10], 1.42 µg/mL; in [11] it was 2.09 µg/mL; in experiment [12], 28.2 µg/mL. For the same substance, the concentration for an effect of 80% (IC80) in experiment [13] is greater than 50 µg/mL; in experiment [14], greater than 50 µg/mL; in experiment [15] it was greater than 50 µg/mL; in experiment [16], 4.19 µg/mL; in experiment [17] it was 2.69 µg/mL; in experiment [18] it was 0.445 µg/mL. Further, the 80% effect concentration (IC80) was greater than 50 µg/mL in [19] and 14.4 µg/mL in [20]. The MPI in experiment [7] was 100; in experiment [8], 93; in [9], 99; in [10], 98; in experiment [11], 99; in experiment [12] it was 87. Further, the MPI in [13] was 63; in [14] it was 2; in experiment [15], 80; in experiment [16], 100; in experiment [17] it was 100; in experiment [18], 100. Also, the MPI in experiment [19] was 14; in experiment [20], 91.
PG9 (antibody): the IC50, titer in TZM.bl cells in [1] turned out to be 1.73 µg/mL; in experiment [2], 0.144 µg/mL; in [3], 1.1 µg/mL; in [4], 0.068 µg/mL; in experiment [5], 0.255 µg/mL; in experiment [6], 0.163 µg/mL. The IC80, titer in TZM.bl cells in [1] turned out to be 8.21 µg/mL; in [2], 0.335 µg/mL; in experiment [3] it was 21.5 µg/mL; in [4], 0.2 µg/mL; in [5] it was 1.24 µg/mL; in experiment [6], 0.535 µg/mL.
PG16 (antibody): the IC50, titer in TZM.bl cells in experiment [1] was 1.19 µg/mL; in experiment [2], 0.071 µg/mL; in experiment [3] it was greater than 50 µg/mL; in experiment [4] it was 0.022 µg/mL; in [5], 0.67 µg/mL; in experiment [6], 0.016 µg/mL. Also, the IC80, titer in TZM.bl cells is 22.1 µg/mL in experiment [1]; greater than 50 µg/mL in experiment [2]; greater than 50 µg/mL in experiment [3]; 0.143 µg/mL in experiment [4]; greater than 50 µg/mL in experiment [5]; 0.146 µg/mL in experiment [6].
